Measurements reported in article PMC2443151.

Legend:
[1] = molecular target: PLA2 (phospholipase A2) from Crotalus durissus cascavella rattlesnake venom (Crotalus durissus cascavella)
[2] = molecular target: PLA2 (phospholipase A2) from Crotalus durissus cascavella rattlesnake venom (Crotalus durissus cascavella); remark: listed apart in the source

BTL-2, isolectin from the red marine alga Bryothamnion triquetrum (natural protein)
enzymatic activity of PLA2 on 4-nitro-3-octanoyloxy-benzoic acid after incubation with BTL-2; increase against PLA2 alone [1]: 23%
aggregation of washed human platelets induced by PLA2 after 30 min incubation with BTL-2, at 1 μg and 3 μg (72.7% and 48.8%), compared to PLA2 alone [2]: 72.7%
